Reference: PMC9095961

Target: fluorescently labelled recombinant HAUSP (UniProt Q93009)
Assay: other fluorescence titration; BODIPY FL-labelled HAUSP titrated with unlabeled PE_PGRS38; 25°C, 30 mM Tris pH 7.4, 150 mM NaCl, 1 mM dithiothreitol; fitted with Grafit

Sequence of UniProt Q93009 (Q93009 whole entry): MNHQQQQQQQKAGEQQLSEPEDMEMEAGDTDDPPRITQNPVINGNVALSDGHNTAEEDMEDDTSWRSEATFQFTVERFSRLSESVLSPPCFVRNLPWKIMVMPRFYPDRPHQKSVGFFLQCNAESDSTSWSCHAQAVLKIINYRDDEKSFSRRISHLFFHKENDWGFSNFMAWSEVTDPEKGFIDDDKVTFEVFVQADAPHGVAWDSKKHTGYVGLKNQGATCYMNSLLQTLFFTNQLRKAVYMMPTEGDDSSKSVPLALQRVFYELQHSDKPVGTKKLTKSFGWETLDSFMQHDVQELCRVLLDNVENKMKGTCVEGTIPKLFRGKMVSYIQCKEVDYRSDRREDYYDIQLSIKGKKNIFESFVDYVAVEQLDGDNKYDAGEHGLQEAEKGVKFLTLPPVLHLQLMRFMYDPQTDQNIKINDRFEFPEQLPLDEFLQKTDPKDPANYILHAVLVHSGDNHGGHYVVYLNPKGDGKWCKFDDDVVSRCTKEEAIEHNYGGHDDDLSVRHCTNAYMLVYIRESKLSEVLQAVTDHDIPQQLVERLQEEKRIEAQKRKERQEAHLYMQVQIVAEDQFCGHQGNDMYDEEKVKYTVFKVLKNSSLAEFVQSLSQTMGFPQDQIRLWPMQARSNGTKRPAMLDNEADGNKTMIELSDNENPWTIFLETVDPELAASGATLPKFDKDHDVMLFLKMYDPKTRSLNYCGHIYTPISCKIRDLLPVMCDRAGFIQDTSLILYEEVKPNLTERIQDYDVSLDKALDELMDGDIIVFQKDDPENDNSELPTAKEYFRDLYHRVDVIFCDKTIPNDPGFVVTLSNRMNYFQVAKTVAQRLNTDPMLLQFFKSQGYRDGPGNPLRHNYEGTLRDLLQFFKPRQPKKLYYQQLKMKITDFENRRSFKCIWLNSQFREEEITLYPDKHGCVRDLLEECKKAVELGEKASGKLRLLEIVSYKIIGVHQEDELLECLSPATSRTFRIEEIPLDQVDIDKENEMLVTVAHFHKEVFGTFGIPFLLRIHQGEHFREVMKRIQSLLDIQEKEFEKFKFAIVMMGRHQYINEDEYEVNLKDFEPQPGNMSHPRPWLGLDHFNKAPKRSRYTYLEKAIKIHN

For “recombinant PE_PGRS38 (from UniProt L7N6A1 1-532) (natural protein)”, the Kd was 143 nM.
